# Reference: patent publication US20180298051A1 (Scripps Research, published 2018)
# Ends that are not written are not given here.
# Molecular target: T1, RXFP1 on RXFP1 CRE-Bla cells (human, UniProt Q9HBX9 1-757)
# T1 sequence (looked up): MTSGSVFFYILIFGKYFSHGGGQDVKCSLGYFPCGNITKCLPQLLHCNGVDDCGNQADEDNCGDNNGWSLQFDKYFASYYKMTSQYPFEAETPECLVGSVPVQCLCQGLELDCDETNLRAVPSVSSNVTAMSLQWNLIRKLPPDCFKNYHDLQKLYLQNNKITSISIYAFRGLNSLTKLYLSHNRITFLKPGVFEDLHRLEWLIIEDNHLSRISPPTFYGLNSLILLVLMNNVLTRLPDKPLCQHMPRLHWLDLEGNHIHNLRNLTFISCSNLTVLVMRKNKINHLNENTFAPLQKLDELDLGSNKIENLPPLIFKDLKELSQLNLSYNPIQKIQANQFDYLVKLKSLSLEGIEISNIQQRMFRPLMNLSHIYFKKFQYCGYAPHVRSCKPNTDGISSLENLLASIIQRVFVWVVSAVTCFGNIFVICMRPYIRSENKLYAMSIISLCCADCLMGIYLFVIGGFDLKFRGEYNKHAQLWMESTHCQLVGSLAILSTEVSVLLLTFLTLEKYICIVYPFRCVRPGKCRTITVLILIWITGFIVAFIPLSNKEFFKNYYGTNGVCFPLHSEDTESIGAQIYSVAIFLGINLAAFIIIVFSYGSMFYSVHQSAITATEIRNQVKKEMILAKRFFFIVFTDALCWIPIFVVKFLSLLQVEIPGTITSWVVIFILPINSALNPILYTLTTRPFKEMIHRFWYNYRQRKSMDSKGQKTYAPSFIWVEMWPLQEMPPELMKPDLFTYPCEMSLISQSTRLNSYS
# Assay: cell-based or functional assay
binder,measurement,value
"relaxin-H2 protein (R&D Systems) (ligand, disulfide (positions not given here); ends not checked; also: three disulfides: two between A and B chains, one within A chain, pairings not given here) chain 1: QLYSALANKCCHVGCTKRSLARFC chain 2: DSWMEEVIKLCGRELVRAQIAICGMSTWS","EC50, in vitro FRET assay, RXFP1 CRE-Bla cells",4.9 nM
